B1: Bet v 1.0101 peptide I56 to D69 [modified: biotin at the N-terminus, before the additional glycine; biotin at the N-terminus, before the additional glycine] [birch] / M0418 scFv-Fcε fusion protein [human] (parent)
chain 1: QVQLVQSGAEVKKPGESLKISCKGSEYSFPNYWIAWVRQMPGKGLEWMGMIYPGDSDTRYSPSFQGQVNISADKSSRTAFLEWSSLKASDSATYFCARLGGQLWNSYYYYYYMDVWGKGTTVTVSSGGGGSGGGGSGGGGSSYELTQPPSASGTPGQRVTISCSGSSSNIGGNTVNWYQQVPGTAPRLLIYKNNQRPSGVPDRFSGSKSGTSASLAISGLRSEDEADYYCEAWDGGLRGGVFGGGTKLTVLGDYKDDDDKAAA
chain 2: GISFPEGFPFKYVKDG

The variants in the experiment derive from B1. The experiment in a line: ELISA. The settings on record: with M0418 scFv-Fcε fusion protein [human], read off a plot. (In an ELISA, binding on a coated surface is turned into a signal by an enzyme label.)

Take chain 2 GISFAEGFPFKYVKDG [chain 2 P5A]: the screen value came to 96% (10X dilution) and 98% (100X dilution).
As to chain 2 GISFPAGFPFKYVKDG [chain 2 E6A], the screen value reads like this: (10X dilution) -0%; (100X dilution) 14%.
Turning to chain 2 GISFPEGFPFAYVKDG [chain 2 K11A], the screen value runs as follows: (10X dilution) 95%; (100X dilution) 98%.
In the same order, the values of chain 2 GISFPEGFPFKYVKAG [chain 2 D15A] are -0% and -0%.
In the same order, the values of chain 2 GISAPEGFPFKYVKDG [chain 2 F4A] are -0% and 37%.
On the same counts, the results for chain 2 GISFPEGFPFKYVADG [chain 2 K14A] are -0% and -0%.
In the case of chain 2 GISFPEGFAFKYVKDG [chain 2 P9A], the screen value (10X dilution) is 95% and the screen value (100X dilution) came out at 98%.
Consider chain 2 GISFPEGFPFKYAKDG [chain 2 V13A], for which the screen value was -0% (10X dilution) and -0% (100X dilution).
For chain 2 GISFPEGFPFKAVKDG [chain 2 Y12A], the screen value runs as follows: (10X dilution) 3%; (100X dilution) 79%.
In the same order, the values of chain 2 GIAFPEGFPFKYVKDG [chain 2 S3A] are -0% and 9%.
Regarding chain 2 GASFPEGFPFKYVKDG [chain 2 I2A], the screen value by setting is: (10X dilution) 5%; (100X dilution) 76%.
On the same counts, the results for chain 2 GISFPEGAPFKYVKDG [chain 2 F8A] are 95% and 98%.
On the same counts, the results for chain 2 GISFPEAFPFKYVKDG [chain 2 G7A] are 43% and 83%.
Take chain 2 GISFPEGFPAKYVKDG [chain 2 F10A]: the screen value by setting is: (10X dilution) -0%; (100X dilution) 38%.

The values are drawn from paper PMC4215112.
